Measured values from US20240166765A1, “INFLAMMATORY DISEASE TREATMENT USING ANTI-TISSUE FACTOR ANTIBODIES” (Iconic Therapeutics LLC, priority 2020, published 2024).

Experiments:
Test in all cases: Epitope binning, chimeric TF construct mapping (live cell staining assay)
Type in all cases: binding
[1] = biological target: T1, chimeric human-rat TF constructs expressed on HEK293 cells (Homo sapiens, UniProt P13726, A200N/D212E/E215V/K197R/K201T/N203H/N216S/S192D/S195T/S220F/V221A); conditions: construct h159-189_r (11); human segment replaced by rat segment
T1 construct: expressed in transfected cells; host or cells: HEK293
Description: (§1) To establish binding of the anti-human TF antibodies to the various TF constructs, HEK293 cells were transfected with a DNA plasmid that co-expresses the TF construct and a green fluorescent protein marker. For a subset of the antibodies, an antibody titration (a 12-point 1:3 dilution series starting at 250 nM) was evaluated on select TF constructs (See international PCT application PCT/US2019/012427 and U.S. utility application Ser. No. 16/959,652, incorporated herein by reference in their entirety). […] Two days after transfection, cells were collected from the tissue culture plate, stained with 15 μg/ml of the indicated anti-TF antibody, washed, stained with anti-human IgG-Fc Alexa Fluor 647 polyclonal antibody, washed, and stained with the viability dye 4′,6-Diamidino-2-Phenylindole, Dihydrochloride. Upon acquisition of 80,000 live events on a flow cytometer, live cells marked with the fluorescent marker were analyzed for the degree of staining by the anti-TF antibody. […] As used herein, the term “live cell staining assay” refers to the antibody binding assay used in this example.
(§2) When “Percentage antibody binding to TF construct relative to hTF” in Tables 51 and 52 was less than 50%, the antibody was considered a non-binder (0) in Tables 53 and 54.

[2] = biological target: T2, chimeric human-rat TF constructs expressed on HEK293 cells (Homo sapiens, UniProt P13726, A200N/K201T/N203H); conditions: construct h167-174_r (3); human segment replaced by rat segment
T2 construct: expressed in transfected cells; host or cells: HEK293
Description: as §1, §2

[3] = biological target: T3, chimeric human-rat TF constructs expressed on HEK293 cells (Homo sapiens, UniProt P13726, K100N); conditions: construct hTF_K68N
T3 construct: expressed in transfected cells; host or cells: HEK293
Description: as §1, §2

[4] = biological target: T4, chimeric human-rat TF constructs expressed on HEK293 cells (Homo sapiens, UniProt P13726, D177Q/S174T); conditions: construct h140-145_r (2); human segment replaced by rat segment
T4 construct: expressed in transfected cells; host or cells: HEK293
Description: as §1, §2

[5] = biological target: T5, chimeric human-rat TF constructs expressed on HEK293 cells (Homo sapiens, UniProt P13726, P226F); conditions: construct h190-219_r (16); human segment replaced by rat segment
T5 construct: expressed in transfected cells; host or cells: HEK293
Description: as §1, §2

[6] = biological target: T6, chimeric human-rat TF constructs expressed on HEK293 cells (Homo sapiens, UniProt P13726, E160K/E162S/F148Y/L140I/N156K/R163F/S147K/T144V/V151G/V155L); conditions: construct h108-132_r (10); human segment replaced by rat segment
T6 construct: expressed in transfected cells; host or cells: HEK293
Description: as §1, §2

[7] = biological target: T7, chimeric human-rat TF constructs expressed on HEK293 cells (Homo sapiens, UniProt P13726, N203H/T229K); conditions: construct hTF_N171H_T197K
T7 construct: expressed in transfected cells; host or cells: HEK293
Description: as §1, §2

[8] = biological target: T8, chimeric human-rat TF constructs expressed on HEK293 cells (Homo sapiens, UniProt P13726, A112W/A121H/DEL115-116/DUP123-123/G113R/INS118HGKETLF/L125P/S120T/Y110V); conditions: construct h78-93_r (18); human segment replaced by rat segment
T8 construct: expressed in transfected cells; host or cells: HEK293
Description: as §1, §2

[9] = biological target: T9, chimeric human-rat TF constructs expressed on HEK293 cells (Homo sapiens, UniProt P13726, I184G/T186I/W190R/Y188T); conditions: construct h152-158_r (4); human segment replaced by rat segment
T9 construct: expressed in transfected cells; host or cells: HEK293
Description: as §1, §2

[10] = tested on: chimeric human-rat TF constructs expressed on HEK293 cells
Description: as §1, §2

[11] = biological target: T10, chimeric human-rat TF constructs expressed on HEK293 cells (Homo sapiens, UniProt P13726); conditions: construct hTF
T10 construct: expressed in transfected cells; host or cells: HEK293
Description: as §1, §2

[12] = biological target: T11, chimeric human-rat TF constructs expressed on HEK293 cells (Homo sapiens, UniProt P13726, K197R/S192D/S195T); conditions: construct h159-166_r (3); human segment replaced by rat segment
T11 construct: expressed in transfected cells; host or cells: HEK293
Description: as §1, §2

TF-011
Antibody binding to TF construct [1]: 1 (between 50% and 150%, the antibody was considered a binder (1))
Antibody binding to TF construct [2]: 1 (between 50% and 150%, the antibody was considered a binder (1))
Antibody binding to TF construct [3]: 1 (between 50% and 150%, the antibody was considered a binder (1))
Antibody binding to TF construct [4]: 1 (between 50% and 150%, the antibody was considered a binder (1))
Antibody binding to TF construct [5]: 1 (between 50% and 150%, the antibody was considered a binder (1))
Antibody binding to TF construct [6]: 1 (between 50% and 150%, the antibody was considered a binder (1))
Antibody binding to TF construct [7]: 1 (between 50% and 150%, the antibody was considered a binder (1))
Antibody binding to TF construct [8]: 1 (between 50% and 150%, the antibody was considered a binder (1))
Antibody binding to TF construct [9]: 1 (between 50% and 150%, the antibody was considered a binder (1))
Antibody binding to TF construct ([10]; Table 53, construct rTF): 0 (less than 50%, the antibody was considered a non-binder (0))
Antibody binding to TF construct ([10]; Table 54, construct rTF): 0 (less than 50%, the antibody was considered a non-binder (0))
Constructs not bound by antibody ([10]; chimeric human-rat TF constructs): rTF, h1-107_r, h1-77_r, h39-77_r, h78-107_r, h78-107_r.v2, h94-107_r
Antibody binding to TF construct ([10]; construct h78-107_r (21), human segment replaced by rat segment): 0 (less than 50%, the antibody was considered a non-binder (0))
Antibody binding to TF construct ([10]; construct h108-219_r (46), human segment replaced by rat segment): 1 (between 50% and 150%, the antibody was considered a binder (1))
Antibody binding to TF construct ([10]; construct h159-219_r (27), human segment replaced by rat segment): 1 (between 50% and 150%, the antibody was considered a binder (1))
Antibody binding to TF construct ([10]; construct r141-194_h (rat amino acid segment replaced by human segment, 20 amino acid changes)): 0 (less than 50%, the antibody was considered a non-binder (0))
Antibody binding to TF construct ([11]; Table 53): 1 (between 50% and 150%, the antibody was considered a binder (1))
Antibody binding to TF construct ([11]; Table 54): 1 (between 50% and 150%, the antibody was considered a binder (1))
Antibody binding to TF construct [12]: 1 (between 50% and 150%, the antibody was considered a binder (1))
